Test results reported in US20240029824A1 (University of Washington, published 2024).
One block for each binder: values may come before it.

Columns and labels:
[1] = target: T1, DHT03 chain C (SEQ ID NO: 59); assay: chains mixed and annealed, SEC, negative stain EM; A3B3C3 ring
T1 chain: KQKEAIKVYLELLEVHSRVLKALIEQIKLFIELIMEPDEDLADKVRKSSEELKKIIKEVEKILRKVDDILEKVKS

C3-DHT03-02 chain B = target: T2, C3-DHT03-02 chain B; assay: as above
T2 construct: three copies in the A3B3C3 ring
T2 chain: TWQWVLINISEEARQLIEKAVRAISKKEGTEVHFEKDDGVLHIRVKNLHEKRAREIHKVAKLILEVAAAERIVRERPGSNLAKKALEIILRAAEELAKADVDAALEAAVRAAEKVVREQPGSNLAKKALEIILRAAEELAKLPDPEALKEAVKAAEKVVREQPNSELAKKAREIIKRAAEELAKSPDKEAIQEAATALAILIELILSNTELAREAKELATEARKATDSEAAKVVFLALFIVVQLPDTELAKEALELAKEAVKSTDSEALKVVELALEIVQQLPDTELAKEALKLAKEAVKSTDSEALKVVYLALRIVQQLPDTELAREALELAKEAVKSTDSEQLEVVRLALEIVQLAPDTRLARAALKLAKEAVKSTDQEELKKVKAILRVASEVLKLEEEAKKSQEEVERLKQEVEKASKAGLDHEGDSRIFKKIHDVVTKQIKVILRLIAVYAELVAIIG

[2] = target: T1, DHT03 chain C (SEQ ID NO: 59); assay: chains mixed and annealed, SEC, negative stain EM; A4B4C4 ring
C4-DHT03-01 chain B = target: T3, C4-DHT03-01 chain B; assay: as above
T3 construct: four copies in the A4B4C4 ring; also called C4-DHT03-01-DHR82 chain B
T3 chain: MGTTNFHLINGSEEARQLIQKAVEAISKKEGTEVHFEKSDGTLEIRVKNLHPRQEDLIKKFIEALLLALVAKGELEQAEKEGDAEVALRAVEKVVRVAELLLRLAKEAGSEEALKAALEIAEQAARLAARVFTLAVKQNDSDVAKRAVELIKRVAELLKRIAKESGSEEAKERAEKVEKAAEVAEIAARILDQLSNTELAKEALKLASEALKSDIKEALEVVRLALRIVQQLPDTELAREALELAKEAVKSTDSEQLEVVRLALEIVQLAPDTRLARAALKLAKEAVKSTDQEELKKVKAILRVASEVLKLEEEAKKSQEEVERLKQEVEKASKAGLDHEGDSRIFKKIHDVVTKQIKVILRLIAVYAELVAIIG

[3] = target: T4, DHT03_3arm_A21/B21/C82 chain C; assay: three components purified separately, mixed equimolar, heat annealed, SEC, negative stain EM
T4 construct: also called chain C DHR82 fusion; chain C of C3-DHT03-01-DHR82 and C4-DHT03-01-DHR82
T4 chain: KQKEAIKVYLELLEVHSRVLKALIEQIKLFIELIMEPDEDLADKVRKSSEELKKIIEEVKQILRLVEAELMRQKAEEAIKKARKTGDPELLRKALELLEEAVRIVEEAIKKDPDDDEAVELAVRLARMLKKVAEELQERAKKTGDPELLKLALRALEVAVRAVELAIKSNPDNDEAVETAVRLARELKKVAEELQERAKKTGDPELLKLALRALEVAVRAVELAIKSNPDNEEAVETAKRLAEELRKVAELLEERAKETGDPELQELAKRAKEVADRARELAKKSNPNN
Excerpt: As is evident from the images in FIGS. 4c and 4d, the cyclic structures retain one of the original heterotrimer helical hairpins in each corner; these short, outward facing protein chains provide fusion points for further elaboration of higher order symmetric assemblies. To evaluate the potential for building up larger nanostructures using the rings as hubs, and explore the modularity of the designed building blocks, we replaced the original outward facing chain C helical hairpin with the chain C DHR82 fusion (as it was the largest 4-repeat DHR) from FIG. 3d, row 8. This was done for two designs (C3-DHT03-01 and C4-DHT03-01), with chain C replaced by fusion C82 through expressing and purifying the three components separately, mixing them in equal molar quantities, and reconstituting using heat annealing.
An AKTA PURE FPLC system was used. Heterotrimer bases, arm extensions, coiled coil C2 rings, and all constructs mentioned in SI were passed through a Cytvia Superdex S200 Increase 10/300 GL column, while C3/C4 rings made from DHT03 were passed through a Cytvia Superdex S6 Increase 10/300 GL column. The mobile phase was TBS (25 mM Tris-HCl pH 8.0, 100 mM NaCl or 25 mM Tris-HCl pH 8.0, 150 mM NaCl). Samples ran at a flow rate of 0.75 ml/min and fractions were collected at 0.5 ml.

C4-DHT03-02 chain B = target: T5, C4-DHT03-02 chain B; assay: chains mixed and annealed, SEC, negative stain EM; A4B4C4 ring
T5 construct: four copies in the A4B4C4 ring
T5 chain: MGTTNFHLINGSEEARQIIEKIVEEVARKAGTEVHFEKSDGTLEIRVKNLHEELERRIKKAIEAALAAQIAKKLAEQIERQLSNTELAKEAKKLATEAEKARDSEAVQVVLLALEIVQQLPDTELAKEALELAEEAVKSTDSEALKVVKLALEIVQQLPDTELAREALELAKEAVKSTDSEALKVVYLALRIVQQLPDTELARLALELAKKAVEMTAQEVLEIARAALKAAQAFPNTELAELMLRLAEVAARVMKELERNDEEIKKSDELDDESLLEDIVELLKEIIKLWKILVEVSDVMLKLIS

DHT02 chain B = target: T6, DHT02 chain B; assay: co-expression, IMAC, SEC, native MS; chains of one ABC heterotrimer
T6 chain: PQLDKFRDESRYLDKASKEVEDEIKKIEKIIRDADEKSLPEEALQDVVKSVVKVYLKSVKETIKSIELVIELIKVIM
Excerpt: (§1) Genes encoding 85 heterotrimers in a tricistronic expression vector were obtained, and the proteins were expressed in E. coli and purified via IMAC with only one chain having the 6×His-tag. Nine of the designs (FIG. 3a) had monodisperse SEC peaks (FIG. 3b), were almost exclusively ABC by nMS, and had good SAXS fits to the design models (Table 7). […] Eight of the designs are parallel heterotrimers, while DHTO9 is an antiparallel heterotrimer. […] For 3 other designs, only the ABC heterotrimer was determined to form by nMS (when the respective SEC fraction was analyzed) but the heterotrimer SEC peak was preceded by soluble aggregate that would make building with these constructs difficult downstream. We explored the dependence of cooperativity on connectivity between the three chains by changing the positions of the loops across different helices in DHT03, while keeping the rest of the interface intact. […] The ability to sustain alternate loop closures increases the number of heteromeric building blocks available for future nanostructure assembly applications and may enable rigid fusion of functional domains to the different termini available.
(§2) Samples were analyzed by online buffer exchange native mass spectrometry (nMS) to evaluate sample purity and accurately determine oligomeric states⁴². Multiple instruments were used as the analyses were carried out over the duration of the protein design process. The mass spectrometers used for detection were a Q Exactive™ UHMR modified with a surface-induced dissociation device and an Exactive™ Plus EMR modified with a selection quadrupole and a surface-induced dissociation device (Thermo Fisher Scientific)⁴³. The liquid chromatography systems used for the buffer exchange include a Vanquish™ Duo UHPLC and a Dionex™ Ultimate 3000 HPLC (Thermo Fisher Scientific). A heated electrospray ionization source (HESI-II, Thermo Fisher Scientific) with a spray voltage of ˜4 kV was used for ionization.

DHT02 chain C = target: T7, DHT02 chain C; assay: as above
T7 chain: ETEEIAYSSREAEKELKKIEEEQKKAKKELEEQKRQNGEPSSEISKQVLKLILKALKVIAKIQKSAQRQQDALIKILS
Excerpt: as §1, §2

DHT04 chain B = target: T8, DHT04 chain B; assay: as above
T8 chain: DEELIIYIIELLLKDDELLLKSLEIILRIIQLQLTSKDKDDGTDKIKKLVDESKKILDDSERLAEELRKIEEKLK
Excerpt: as §1, §2

DHT04 chain C = target: T9, DHT04 chain C; assay: as above
T9 chain: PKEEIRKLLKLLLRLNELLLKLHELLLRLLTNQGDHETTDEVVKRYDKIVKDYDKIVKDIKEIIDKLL
Excerpt: as §1, §2

DHT06 chain B = target: T10, DHT06 chain B; assay: as above
T10 chain: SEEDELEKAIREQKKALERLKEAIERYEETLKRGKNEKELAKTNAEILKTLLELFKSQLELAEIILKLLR
Excerpt: as §1, §2

DHT06 chain C = target: T11, DHT06 chain C; assay: as above
T11 chain: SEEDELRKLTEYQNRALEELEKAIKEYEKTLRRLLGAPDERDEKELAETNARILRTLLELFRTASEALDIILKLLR
Excerpt: as §1, §2

DHT07 chain B = target: T12, DHT07 chain B; assay: as above
T12 chain: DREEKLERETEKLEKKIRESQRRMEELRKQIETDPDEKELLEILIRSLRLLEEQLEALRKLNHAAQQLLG
Excerpt: as §1, §2

DHT07 chain C = target: T13, DHT07 chain C; assay: as above
T13 chain: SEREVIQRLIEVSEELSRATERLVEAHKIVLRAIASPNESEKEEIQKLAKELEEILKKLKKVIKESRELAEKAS
Excerpt: as §1, §2

B1: C3-DHT03-02 chain A (designed binder)
chain: SSIFLLSNVDESARQLAEELVREISKKEGTEVRFEKDDGFLTIEVKNLSEERLREIARALQLIVDVANAERVVRERPGSNLAKKALEIILRAAEELAKLTLEASLKAAQIAAELVVREQPGSNLAEKAKTIILQARAAELAIRIEEQLKDTELAKEAKELATEAIKAQDKEALKVVELALKIVQQLPDTELAKEALKLAKEAVKSTDSEALKVVELALEIVQQLPDTELAKEALELAEEAVKSTDSEALKVVKLALEIVQQLPDTELAREALELAKEAVKSTDSEALKVVYLALRIVQQLPDTELARLALELAKKAVEMTAQEVLEIARAALKAAQAFPNTELAELMLRLAEVAARVMKELERNDEEIKKSDELDDESLLEDIVELLKEIIKLWKILVEVSDVMLKLIS
notes: three copies in the A3B3C3 ring
binding result [1]: binds | binding result (C3-DHT03-02 chain B): binds

B2: C4-DHT03-01 chain A (designed binder)
chain: MGNTHFIVVHGGEEARQLAETAVREISKKEGTEVRFEKKDGLLSIEVKNLSEELQRLIQELLQLLVRLAALLEAVRAVEEAIKRNPDNDEAVETAVRLARELKKVAELLQELAKKAGVPAILRGALLALLVAARAVALAALANSKNDEAREALKRLAEELKKVAKELKERAKKTKDSELERLALAAELMALAAEIVAQLANTELAREALELATEAIKASDDEALRVVKLALRIVQQLPDTELARLALELAKKAVEMTAQEVLEIARAALKAAQAFPNTELAELMLRLAEVAARVMKELERNDEEIKKSDELDDESLLEDIVELLKEIIKLWKILVEVSDVMLKLIS
notes: four copies in the A4B4C4 ring; also called C4-DHT03-01-DHR82 chain A
binding result [2]: binds | binding result (C4-DHT03-01 chain B): binds | binding result [3]: binds

B3: C4-DHT03-02 chain A (designed binder)
chain: MGNTHFIVVHGGEEARQLAETAVREISKKEGTEVRFEKKDGLLSIEVKNLSEELQRLIQELLQLLVRLAALLEAVRAVEEAIKRNPDNDEAVETAVRLARELKKVAELLQELAKKAGVPAILRGALLALEVAVRAVELAIKSNPDNDEAVETAVRLARELLKVAAELAERAAKTKDEELIKLAQRAIEVAQRAVELAKKSNKDNEEAEKTRLALEAMELALQIFRQLKNTELAREAIELATEAAKATDSEALKVVKLALKIVQQLPDTELAKEALELAKEAVKSTDSEALKVVELALEIVQQLPDTELAKEALKLAKEAVKSTDSEALKVVYLALRIVQQLPDTELAREALELAKEAVKSTDSEQLEVVRLALEIVQLAPDTRLARAALKLAKEAVKSTDQEELKKVKAILRVASEVLKLEEEAKKSQEEVERLKQEVEKASKAGLDHEGDSRIFKKIHDVVTKQIKVILRLIAVYAELVAIIG
notes: four copies in the A4B4C4 ring
binding result [2]: binds | binding result (C4-DHT03-02 chain B): binds

B7: DHT07 chain A (designed binder)
chain: SEKELIQLYVEAQELYAEAFELQVEIFKLLVKILSANSPKDEKEKIEKRIEEVQKRIKEIQERLQEIQKRLEEAG
binding result (DHT07 chain B): binds | binding result (DHT07 chain C): binds

Results, then the binder that gave them:

binding result (DHT02 chain B): binds | binding result (DHT02 chain C): binds
B4: DHT02 chain A (designed binder)
chain: PDSDELRKLLKQLEDLLQQLKDLIDKAERHNGDNDVILELHEIYLRLLDIYQKLAKIILKLLR

binding result (DHT04 chain B): binds | binding result (DHT04 chain C): binds
B5: DHT04 chain A (designed binder)
chain: PERELLELLIRLFNSQVKLFELQKELLELLRELLEENSEDNSRKLEDLLRKIQELLKENQDLLYTVEDVLRKLK

binding result (DHT06 chain B): binds | binding result (DHT06 chain C): binds
B6: DHT06 chain A (designed binder)
chain: DEKELAKTNAEILKTLLELFEAESRLQEIILKLLERPDEKEEDELKRALERLKEALERLEEAIKRYEETLKRLL
